# From patent US10765739B2, “Use of MIF and MIF pathway agonists” (Yale University, priority 2006, dated 2020)
# B1: rMIF: recombinant human MIF (macrophage migration inhibitory factor), the preferred MIF agonist (protein, UniProt P14174 2-115, looked up)
# Macrophage migration …: PMFIVNTNVPRASVPDGFLSELTQQLAQATGKPPQYIAVHVVPDQLMAFGGSSEPCALCSLHSIGKIGGAQNRSYSKLLCGLLAERLRISPDRVYINYYDMNAANVGWNNSTFA
# Columns and labels:
# [1] = system: GLUT4; experiment: Cell-surface GLUT4 content of papillary muscles by bio-LC-ATB-BGPA photolabel; assay type: cell-based, rat; details: 400 ng/ml for 60 minutes
# Procedure: Briefly, rat heart anterior and posterior left ventricular papillary muscles (3-5 mg) were equilibrated in oxygenated Dulbecco's phosphate-buffered saline (PBS) containing 1 mM MgCl2 […], glucose, and 1% BSA. Unless otherwise noted, 100% oxygen flowed continuously through sealed muscle incubation containers while muscles were kept in an oscillating water bath at 37° C., and experiments began after a 15 minute equilibration period in these conditions. During incubations designed to examine the effects of hypoxia, muscles were transferred to incubation containers gassed with N2 for 30 minutes. In incubations with rMIF (0-800 ng/ml), anti-MIF blocking antibody (100 μg/ml), and/or non-immune rabbit IgG (100 μg/ml); Sigma, USA), these compounds were added for 30-120 minutes. […]
# Glucose uptake is primarily mediated by the glucose transporter, GLUT4, and AMPK-stimulation of glucose transport is due to the translocation of GLUT4 vesicles to the cell surface, where GLUT4 is physiologically active (Sun et al., Circulation 89, 793 (1994); Young et al., Circulation 95, 415 (1997)). Thus, we assessed the cell-surface GLUT4 content of heart muscles after incubation with rMIF, utilizing a cell-membrane impermeant biotinylated glucose transporter photolabel (bio-LC-ATB-BGPA). […]
# [2] = system: AMPK; experiment: AMPK Thr172 phosphorylation (immunoblot densitometry) in isolated heart papillary muscles; assay type: cell-based, rat; details: normoxic heart muscles
# Procedure: (§1) Briefly, rat heart anterior and posterior left ventricular papillary muscles (3-5 mg) were equilibrated in oxygenated Dulbecco's phosphate-buffered saline (PBS) containing 1 mM MgCl2 […], glucose, and 1% BSA. Unless otherwise noted, 100% oxygen flowed continuously through sealed muscle incubation containers while muscles were kept in an oscillating water bath at 37° C., and experiments began after a 15 minute equilibration period in these conditions. During incubations designed to examine the effects of hypoxia, muscles were transferred to incubation containers gassed with N2 for 30 minutes. In incubations with rMIF (0-800 ng/ml), anti-MIF blocking antibody (100 μg/ml), and/or non-immune rabbit IgG (100 μg/ml); Sigma, USA), these compounds were added for 30-120 minutes. At the end of experiments, muscles were freeze clamped and stored in liquid nitrogen until further analysis, unless otherwise specified.
# (§2) Immunoblots were performed according to standard methods known in the art. See, for example, Li et al., Am. J. Physiol Endocrinol Metab 287, E384 (2004) and Baron et al., Circ Res (Jan. 13, 2005). Heart homogenate proteins were combined with Laemmli sample buffer prior to resolution by SDS-PAGE, transferred onto polyvinylidene difluoride membranes, immunoblotted, detected with enhanced chemiluminesence, and quantified by densitometry.
# [3] = system: rat heart left ventricular papillary muscles; experiment: 2-deoxy-[1-3H]glucose uptake in isolated heart papillary muscles; assay type: cell-based; details: normoxic heart muscles, 0-800 ng/ml for 60 minutes
# Procedure: as §1
# To further support MIF's role in modulating the AMPK pathway, we added recombinant human MIF (rMIF) to intact normoxic heart muscles. Papillary muscles were isolated as above. […]
# [4] = system: AMPK; experiment: Hypoxic AMPK phosphorylation in human dermal fibroblasts by MIF promoter genotype; assay type: cell-based; details: 10 ng/ml during 9 hours of hypoxia
# Procedure: as §2
# To isolate human fibroblasts, human foreskin samples were obtained from the Yale Human Cell Resource Center (Department of Dermatology) in accordance with the Yale Human Investigations Committee. Fibroblasts were cultured in DMEM supplemented with 10% fetal bovine serum (FBS), penicillin (100 IU/ml) and streptomycin (100 μg/ml) at 37° C. Cells were studied at 80% confluence, and on the day prior to experiments, culture media was changed to DMEM with 1% FBS. Early passage fibroblasts were either subjected to 9 hours of hypoxia by incubation in an air-tight chamber gassed with 95% nitrogen/5% CO2 or control incubation in room air.
# To confirm that relative MIF deficiency was responsible for impaired hypoxic AMPK activation in the low-expressing 5/5 genotype fibroblasts, we investigated the effect of adding human rMIF (10 ng/ml) to the culture media during hypoxic incubation.
molecule,measurement,setting,value
B1,cell-surface GLUT4,[1],increased
same,AMPK Thr172 phosphorylation,"[2]; 0-400 ng/ml, 0-120 minutes",time- and dose-dependent increase
same,maximal AMPK activation (AMPK Thr172 phosphorylation),[2]; 400 ng/ml incubated for 60 minutes,1.5-2.0 fold increase
same,glucose uptake,[3],increase
same,hypoxic AMPK signaling (AMPK phosphorylation),[4]; 5/5 genotype fibroblasts,rescued
same,AMPK phosphorylation,[4]; hypoxic non-5/5 genotype fibroblasts,no additional effect
